B1: VCP^WT-sfGFP (Drosophila VCP tagged with sfGFP at the endogenous locus) [Drosophila] / wild-type VCP (endogenous, untagged, Drosophila) [Drosophila (endogenous in flies)] (parent)
chain 1: MADSKGEDLATAILKRKDRPNRLIVEEAQNDDNSVVSLSQAKMDELQLFRGDTVILKGKRRKETVCIVLSDDTCPDEKIRMNRVVRNNLCVHLSDVVSVQSCPDVKYGKRVRILPIDESTEGVTGNLFEIYLKPYFLEAYRPIHMGDNFIVRAAMRPIEFKVVLTDPEPYCIVAPETVIFCDGDPIKREEEEESLNAVGYDDIGGCRKQLAQIKEMVELPLRHPSLFKAIGVKPPRGILMYGPPGTGKTLIARAVANETGAFFFLINGPEIMSKLAGESESNLRKAFEEAEKNSPAIIFIDEIDAIAPKRDKTHGEVERRIVSQLLTLMDGMKKSSHLIVMAATNRPNSIDPALRRFGRFDREIDIGIPDATGRLEVLRIHTKNMKLHDDVDLEQIAAESHGHVGADLASLCSEAALQQIREKMDLIDLEDDKIDAEVLASLAVTMENFRYAMTKSSPSALRETVVEVPNTTWTDIGGLESVKKELQELVQYPVEHPDKFLKFGMQPSRGVLFYGPPGCGKTLLAKAIANECQANFISVKGPELLTMWFGESEANVRDIFDKARSAAPCVLFFDELDSIAKARGGNVGDAGGAADRVINQILTEMDGMGAKKNVFIIGATNRPDIIDPAILRPGRLDQLIYIPLPDDKSREAILKANLRKSPLAKEVDLTYIAKVTQGFSGADLTEICQRACKLAIRQAIEAEIRREKERAENQNSAMDMDEDDPVPEITSAHFEEAMKFARRSVSDNDIRKYEMFAQTLQQSRGFGQNFRFPGQTGNTSGSGNNLPVNSPGDNGDDDLYS
chain 2: B1 chain 1

Variants of: B1
Experiment: co-immunoprecipitation (IP: GFP, IB: VCP), band quantification
Settings: with wild-type VCP (endogenous, untagged, Drosophila) [Drosophila (endogenous in flies)]; heterozygous flies; n = 3 independent experiments; read off a plot
chain 1 P134L was tested, and the response was 0.93.

— PMC7820495
